Here are results for four molecules from patent US20230103631A1, “PEPTIDES AS SELECTIVE GIP RECEPTOR AGONISTS” (Sanofi, priority 2020, published 2023).

*1 amine or outer side, *2 acyl side, *3 side chain or, on linkers, in order; H or OH if unused. Where no end group is shown, it is not given here. Side-chain parts run from the residue outwards. [ ]: non-standard residue; d: D form. The star is where a group is joined. C18 diacid = O=C(O)CCCCCCCCCCCCCCCCC(=O)*; γGlu = O=C(O)[C@H](CCC(=O)[*:2])N[*:1]; AEEA = NCCOCCOCC(=O)O; Aib = CC(C)(N)C(=O)O; Sar = CNCC(=O)O

One may read the half-life as the time needed for the level to fall by half in the phase considered. The IC50 is the concentration that gives 50% inhibition. The low end stands for inhibition by little substance, the high end for a need for much substance.

For data set [1] the following is noted: in vivo; cited from earlier work.
Data set [2] addresses T1, human GIP receptor (human, UniProt P48546 22-466).
T1 sequence (looked up): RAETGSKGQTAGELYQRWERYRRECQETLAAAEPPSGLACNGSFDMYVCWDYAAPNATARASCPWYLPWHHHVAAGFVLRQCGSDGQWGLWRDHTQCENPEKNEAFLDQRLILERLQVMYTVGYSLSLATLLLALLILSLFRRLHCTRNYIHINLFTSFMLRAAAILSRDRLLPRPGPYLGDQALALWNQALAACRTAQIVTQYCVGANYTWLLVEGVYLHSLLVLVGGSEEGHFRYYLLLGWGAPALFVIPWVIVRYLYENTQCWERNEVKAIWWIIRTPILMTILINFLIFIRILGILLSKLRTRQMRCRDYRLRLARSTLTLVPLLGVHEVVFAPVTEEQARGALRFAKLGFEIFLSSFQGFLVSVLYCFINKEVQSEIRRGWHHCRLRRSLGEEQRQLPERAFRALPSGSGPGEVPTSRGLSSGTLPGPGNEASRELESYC
Nature of the data set: cell-based or functional assay.

Data set [3] concerns the target T2, human GLP-1 receptor (human, UniProt P43220 24-463). Nature of the data set: cell-based or functional assay.
In data set [4] the target is T1, human GIP receptor. Put plainly: cell-based or functional assay. The source holds these as a separate data set.
Data set [5] addresses T1, human GIP receptor. Nature of the data set: displacement of [125I]GIP from hGIPR HEK-293 membranes, SPA. (In a radioligand displacement assay an active substance lowers the binding of a labelled ligand.)
Data set [6] deals with T2, human GLP-1 receptor. Nature of the data set: displacement of [125I]GLP-1 from hGLP-1R HEK-293 membranes, SPA.

Consider `CC[C@H](C)[C@H](NC(=O)[C@H](CO)NC(=O)[C@H](Cc1ccc(O)cc1)NC(=O)[C@H](CC(=O)O)NC(=O)[C@H](CO)NC(=O)[C@@H](NC(=O)[C@H](Cc1ccccc1)NC(=O)[C@@H](NC(=O)CNC(=O)[C@H](CCC(=O)O)NC(=O)[C@H](C)NC(=O)[C@@H](N)Cc1ccc(O)cc1)[C@@H](C)O)[C@@H](C)CC)C(=O)N[C@@H](C)C(=O)N[C@@H](CCSC)C(=O)N[C@@H](CC(=O)O)C(=O)N[C@@H](CCCCN)C(=O)N[C@H](C(=O)N[C@@H](Cc1c[nH]cn1)C(=O)N[C@@H](CCC(N)=O)C(=O)N[C@@H](CCC(N)=O)C(=O)N[C@@H](CC(=O)O)C(=O)N[C@@H](Cc1ccccc1)C(=O)N[C@H](C(=O)N[C@@H](CC(N)=O)C(=O)N[C@@H](Cc1c[nH]c2ccccc12)C(=O)N[C@@H](CC(C)C)C(=O)N[C@@H](CC(C)C)C(=O)N[C@@H](C)C(=O)N[C@@H](CCC(N)=O)C(=O)N[C@@H](CCCCN)C(=O)NCC(=O)N[C@@H](CCCCN)C(=O)N[C@@H](CCCCN)C(=O)N[C@@H](CC(N)=O)C(=O)N[C@@H](CC(=O)O)C(=O)N[C@@H](Cc1c[nH]c2ccccc12)C(=O)N[C@@H](CCCCN)C(=O)N[C@@H](Cc1c[nH]cn1)C(=O)N[C@@H](CC(N)=O)C(=O)N[C@H](C(=O)N[C@H](C(=O)N[C@@H](CCC(N)=O)C(=O)O)[C@@H](C)O)[C@@H](C)CC)C(C)C)[C@@H](C)CC` [SEQ ID NO: 1, GIP (glucose-dependent insulinotropic polypeptide)], for which the half-life in data set [1] is listed as 2 min.

B1: SEQ ID NO: 9 (peptide)
peptide: Y[Aib]EGTFISDLSI[Aib]K([AEEA-AEEA-γGlu-C18 diacid])DRIHQEEFIEWLLAQGPSSGAPPPS-NH2
modifications: N-terminus assumed
SMILES: CC[C@H](C)[C@H](NC(=O)[C@H](Cc1ccccc1)NC(=O)[C@H](CCC(=O)O)NC(=O)[C@H](CCC(=O)O)NC(=O)[C@H](CCC(N)=O)NC(=O)[C@H](Cc1c[nH]cn1)NC(=O)[C@@H](NC(=O)[C@H](CCCNC(=N)N)NC(=O)[C@H](CC(=O)O)NC(=O)[C@H](CCCCNC(=O)COCCOCCNC(=O)COCCOCCNC(=O)CC[C@H](NC(=O)CCCCCCCCCCCCCCCCC(=O)O)C(=O)O)NC(=O)C(C)(C)NC(=O)[C@@H](NC(=O)[C@H](CO)NC(=O)[C@H](CC(C)C)NC(=O)[C@H](CC(=O)O)NC(=O)[C@H](CO)NC(=O)[C@@H](NC(=O)[C@H](Cc1ccccc1)NC(=O)[C@@H](NC(=O)CNC(=O)[C@H](CCC(=O)O)NC(=O)C(C)(C)NC(=O)[C@@H](N)Cc1ccc(O)cc1)[C@@H](C)O)[C@@H](C)CC)[C@@H](C)CC)[C@@H](C)CC)C(=O)N[C@@H](CCC(=O)O)C(=O)N[C@@H](Cc1c[nH]c2ccccc12)C(=O)N[C@@H](CC(C)C)C(=O)N[C@@H](CC(C)C)C(=O)N[C@@H](C)C(=O)N[C@@H](CCC(N)=O)C(=O)NCC(=O)N1CCC[C@H]1C(=O)N[C@@H](CO)C(=O)N[C@@H](CO)C(=O)NCC(=O)N[C@@H](C)C(=O)N1CCC[C@H]1C(=O)N1CCC[C@H]1C(=O)N1CCC[C@H]1C(=O)N[C@@H](CO)C(N)=O
notes: Exendin-4 derived synthetic lipidated peptide of formula I
For the molecule B1, in the data set with human GIP receptor [2], the “EC50 hGIPR 0% HSA, cAMP in HEK-293 cells” value is 0.19 pM and the “EC50 hGIPR 0.1% HSA, cAMP in HEK-293 cells” value (shortened to “EC50 hGIPR 0.1% HSA, cAMP”) worked out at 1.94 pM. Further, the “EC50 hGLP-1R 0% HSA, cAMP in HEK-293 cells” value (“EC50 hGLP-1R 0% HSA, cAMP” for short) with human GLP-1 receptor [3] is greater than 10000 pM. Further, in the data set with human GIP receptor [4], the “hGIPR EC50, cAMP in human adipocytes” value came to 1400 pM and the “hGIPR Emax, cAMP in human adipocytes” value was 125%. In the data set with human GIP receptor [5], this molecule had an IC50 of 900 pM. Moreover, the IC50 with human GLP-1 receptor [6] worked out at 307000 pM.

B2: SEQ ID NO: 5 (peptide)
peptide: Y[Aib]EGTFISDLSI[Aib]K([Gly-Gly-Gly-γGlu-C18 diacid])DRIHQ[Aib]EFIEWLLAQGPSSGAPPPS-NH2
modifications: N-terminus assumed
SMILES: CC[C@H](C)[C@H](NC(=O)[C@H](CCCNC(=N)N)NC(=O)[C@H](CC(=O)O)NC(=O)[C@H](CCCCNC(=O)CNC(=O)CNC(=O)CNC(=O)CC[C@H](NC(=O)CCCCCCCCCCCCCCCCC(=O)O)C(=O)O)NC(=O)C(C)(C)NC(=O)[C@@H](NC(=O)[C@H](CO)NC(=O)[C@H](CC(C)C)NC(=O)[C@H](CC(=O)O)NC(=O)[C@H](CO)NC(=O)[C@@H](NC(=O)[C@H](Cc1ccccc1)NC(=O)[C@@H](NC(=O)CNC(=O)[C@H](CCC(=O)O)NC(=O)C(C)(C)NC(=O)[C@@H](N)Cc1ccc(O)cc1)[C@@H](C)O)[C@@H](C)CC)[C@@H](C)CC)C(=O)N[C@@H](Cc1c[nH]cn1)C(=O)N[C@@H](CCC(N)=O)C(=O)NC(C)(C)C(=O)N[C@@H](CCC(=O)O)C(=O)N[C@@H](Cc1ccccc1)C(=O)N[C@H](C(=O)N[C@@H](CCC(=O)O)C(=O)N[C@@H](Cc1c[nH]c2ccccc12)C(=O)N[C@@H](CC(C)C)C(=O)N[C@@H](CC(C)C)C(=O)N[C@@H](C)C(=O)N[C@@H](CCC(N)=O)C(=O)NCC(=O)N1CCC[C@H]1C(=O)N[C@@H](CO)C(=O)N[C@@H](CO)C(=O)NCC(=O)N[C@@H](C)C(=O)N1CCC[C@H]1C(=O)N1CCC[C@H]1C(=O)N1CCC[C@H]1C(=O)N[C@@H](CO)C(N)=O)[C@@H](C)CC
notes: as for B1
For the molecule B2, in the data set with human GIP receptor [2], the “EC50 hGIPR 0% HSA, cAMP in HEK-293 cells” value stood at 0.16 pM and the “EC50 hGIPR 0.1% HSA, cAMP” value was found to be 1.75 pM. In the data set with human GLP-1 receptor [3], the “EC50 hGLP-1R 0% HSA, cAMP” value was greater than 10000 pM. Further, in the data set with human GIP receptor [4], the “hGIPR EC50, cAMP in human adipocytes” value was 500 pM and the “hGIPR Emax, cAMP in human adipocytes” value came out at 137%. In addition, in the data set with human GLP-1 receptor [6], the IC50 was determined as 145000 pM.

B3: SEQ ID NO: 6 (peptide)
peptide: Y[Aib]EGTFISDLSI[Aib]K([Sar-Sar-Sar-γGlu-C18 diacid])DRIHQ[Aib]EFIEWLLAQGPSSGAPPPS-NH2
modifications: N-terminus assumed
SMILES: CC[C@H](C)[C@H](NC(=O)[C@H](CCCNC(=N)N)NC(=O)[C@H](CC(=O)O)NC(=O)[C@H](CCCCNC(=O)CN(C)C(=O)CN(C)C(=O)CN(C)C(=O)CC[C@H](NC(=O)CCCCCCCCCCCCCCCCC(=O)O)C(=O)O)NC(=O)C(C)(C)NC(=O)[C@@H](NC(=O)[C@H](CO)NC(=O)[C@H](CC(C)C)NC(=O)[C@H](CC(=O)O)NC(=O)[C@H](CO)NC(=O)[C@@H](NC(=O)[C@H](Cc1ccccc1)NC(=O)[C@@H](NC(=O)CNC(=O)[C@H](CCC(=O)O)NC(=O)C(C)(C)NC(=O)[C@@H](N)Cc1ccc(O)cc1)[C@@H](C)O)[C@@H](C)CC)[C@@H](C)CC)C(=O)N[C@@H](Cc1c[nH]cn1)C(=O)N[C@@H](CCC(N)=O)C(=O)NC(C)(C)C(=O)N[C@@H](CCC(=O)O)C(=O)N[C@@H](Cc1ccccc1)C(=O)N[C@H](C(=O)N[C@@H](CCC(=O)O)C(=O)N[C@@H](Cc1c[nH]c2ccccc12)C(=O)N[C@@H](CC(C)C)C(=O)N[C@@H](CC(C)C)C(=O)N[C@@H](C)C(=O)N[C@@H](CCC(N)=O)C(=O)NCC(=O)N1CCC[C@H]1C(=O)N[C@@H](CO)C(=O)N[C@@H](CO)C(=O)NCC(=O)N[C@@H](C)C(=O)N1CCC[C@H]1C(=O)N1CCC[C@H]1C(=O)N1CCC[C@H]1C(=O)N[C@@H](CO)C(N)=O)[C@@H](C)CC
notes: as for B1
As to B3, in the data set with human GIP receptor [2], the “EC50 hGIPR 0% HSA, cAMP in HEK-293 cells” value was determined as 0.17 pM and the “EC50 hGIPR 0.1% HSA, cAMP” value came out at 1.05 pM. Also, the “EC50 hGLP-1R 0% HSA, cAMP” value in the data set with human GLP-1 receptor [3] is greater than 10000 pM. Also, in the data set with human GIP receptor [4], the “hGIPR EC50, cAMP in human adipocytes” value is 300 pM and the “hGIPR Emax, cAMP in human adipocytes” value is 112%. This molecule also showed an IC50 in the data set with human GLP-1 receptor [6] of 173000 pM.
